In article PMC11931385, “Structural and functional analysis of cancer-associated missense variants in the retinoblastoma protein pocket domain” (The Journal of Biological Chemistry, 2025):
No end group written: not given here. TMR = tetramethyl rhodamine dye

T1: Rb^P Q444R (human, UniProt P06400 380-788, Q444R)
T1 construct: also called variant 4
T1 sequence (looked up): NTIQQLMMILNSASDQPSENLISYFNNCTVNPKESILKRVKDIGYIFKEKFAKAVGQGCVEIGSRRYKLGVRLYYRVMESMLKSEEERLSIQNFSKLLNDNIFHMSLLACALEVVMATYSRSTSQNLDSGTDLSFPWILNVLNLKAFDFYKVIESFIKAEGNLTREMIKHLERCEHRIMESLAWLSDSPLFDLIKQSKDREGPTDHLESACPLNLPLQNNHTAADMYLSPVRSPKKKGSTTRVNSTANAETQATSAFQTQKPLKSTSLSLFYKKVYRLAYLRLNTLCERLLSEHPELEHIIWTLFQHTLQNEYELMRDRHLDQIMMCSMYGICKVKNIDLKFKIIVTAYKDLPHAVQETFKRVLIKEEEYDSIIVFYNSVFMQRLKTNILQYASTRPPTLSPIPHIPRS

T2: Rb^P L572I (human, UniProt P06400 380-788, L572I)
T2 construct: also called variant 31
T2 sequence (looked up): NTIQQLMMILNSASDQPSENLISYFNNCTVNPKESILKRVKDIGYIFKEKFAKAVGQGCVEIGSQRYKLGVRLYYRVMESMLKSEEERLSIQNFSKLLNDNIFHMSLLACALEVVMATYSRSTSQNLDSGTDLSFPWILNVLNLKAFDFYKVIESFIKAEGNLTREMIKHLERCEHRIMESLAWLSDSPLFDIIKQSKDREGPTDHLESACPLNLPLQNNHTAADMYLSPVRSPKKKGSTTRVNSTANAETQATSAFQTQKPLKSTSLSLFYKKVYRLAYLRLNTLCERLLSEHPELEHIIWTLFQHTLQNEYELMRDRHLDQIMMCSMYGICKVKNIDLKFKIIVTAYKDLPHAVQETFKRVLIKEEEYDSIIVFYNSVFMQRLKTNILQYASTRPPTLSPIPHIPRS

T3: Rb^P A490T (human, UniProt P06400 380-788, A490T)
T3 construct: also called variant 16
T3 sequence (looked up): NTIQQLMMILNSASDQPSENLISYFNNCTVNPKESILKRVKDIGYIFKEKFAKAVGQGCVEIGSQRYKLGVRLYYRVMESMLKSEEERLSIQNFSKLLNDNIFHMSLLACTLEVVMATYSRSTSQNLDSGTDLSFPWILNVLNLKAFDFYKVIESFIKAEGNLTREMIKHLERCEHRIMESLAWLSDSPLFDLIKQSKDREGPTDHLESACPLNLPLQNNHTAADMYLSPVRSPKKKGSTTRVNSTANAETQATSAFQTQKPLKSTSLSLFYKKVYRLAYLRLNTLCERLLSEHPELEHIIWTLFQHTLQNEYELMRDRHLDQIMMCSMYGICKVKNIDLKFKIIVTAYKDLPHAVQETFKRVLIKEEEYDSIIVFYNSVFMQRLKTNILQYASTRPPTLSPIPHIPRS

T4: Rb^P S671F (human, UniProt P06400 380-788, S671F)
T4 construct: also called variant 53
T4 sequence (looked up): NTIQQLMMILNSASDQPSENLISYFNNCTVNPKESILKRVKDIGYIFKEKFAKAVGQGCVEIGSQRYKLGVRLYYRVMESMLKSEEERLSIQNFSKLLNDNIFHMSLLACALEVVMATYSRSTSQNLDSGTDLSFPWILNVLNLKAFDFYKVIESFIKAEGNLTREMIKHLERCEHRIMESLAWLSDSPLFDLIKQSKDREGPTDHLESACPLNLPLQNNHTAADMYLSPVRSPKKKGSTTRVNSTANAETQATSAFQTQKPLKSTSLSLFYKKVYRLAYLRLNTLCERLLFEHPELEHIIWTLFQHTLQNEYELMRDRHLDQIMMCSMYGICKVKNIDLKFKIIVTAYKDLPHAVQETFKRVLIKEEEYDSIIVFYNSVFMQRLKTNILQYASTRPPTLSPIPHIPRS

T5: Rb^P S534R (human, UniProt P06400 380-788, S534R)
T5 construct: also called variant 23
T5 sequence (looked up): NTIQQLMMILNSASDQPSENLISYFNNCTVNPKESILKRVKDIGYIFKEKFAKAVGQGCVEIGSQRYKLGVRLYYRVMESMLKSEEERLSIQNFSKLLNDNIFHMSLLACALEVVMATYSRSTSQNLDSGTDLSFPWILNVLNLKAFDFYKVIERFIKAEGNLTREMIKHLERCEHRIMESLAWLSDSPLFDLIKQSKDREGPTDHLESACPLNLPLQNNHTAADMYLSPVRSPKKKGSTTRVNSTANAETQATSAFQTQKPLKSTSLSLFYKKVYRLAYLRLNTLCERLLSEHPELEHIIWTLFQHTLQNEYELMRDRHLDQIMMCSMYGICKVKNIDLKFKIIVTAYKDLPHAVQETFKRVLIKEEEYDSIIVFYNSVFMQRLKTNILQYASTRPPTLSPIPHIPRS


Legend:
Assay in all cases: fluorescence polarisation; 37 °C, after the 25 °C reading ramped over 7 min to 37 °C and 2 min incubation; unlabeled Rb^P against 1.5 nM TMR-E2F1^TD or 7.5 nM TMR-E7^LxCxE; 25 mM Tris pH 8.0, 200 mM NaCl, 1 mM DTT, 0.1% Tween-20; apparent Kd
Conditions in all cases: both partners purified
Rb^P Q444R = biological target: T1, Rb^P Q444R
Rb^P L572I = biological target: T2, Rb^P L572I
Rb^P A490T = biological target: T3, Rb^P A490T
Rb^P S671F = biological target: T4, Rb^P S671F
Rb^P S534R = biological target: T5, Rb^P S534R

Binder	Kd (Rb^P Q444R)	Kd (Rb^P L572I)	Kd (Rb^P A490T)	Kd (Rb^P S671F)	Kd (Rb^P S534R)
{TMR}-GEGIRDLFDCDFGDLTPLD (also called E2F^TD; source: synthetic peptide, bought: GenScript) [TMR-E2F1^TD, peptide of the E2F1 transactivation domain]	25 nM	87 nM	115 nM	46 nM	18000 nM
DLYCYEQLN (also: TMR label, position not given here, source: synthetic peptide, bought: GenScript) [TMR-E7^LxCxE, LxCxE peptide of the E7 oncoprotein from HPV]	17 nM	15 nM	33 nM	19 nM	11 nM
